Data on one substance can be found in paper PMC3782484.

In assay [1] the target is 6pGST, recombinant FbsA fragment 6p (five repeats) fused to GST (Streptococcus agalactiae strain COH1). As to the kind of experiment: SPR; BIAcore X; 5pGST or 6pGST (500 nM) captured on immobilized goat anti-GST antibody, GST alone in the reference cell; human Fng flowed at 2.92 nM to 750 nM, 20 µl/min; equilibrium analysis. On the technique in general: SPR reads the build-up and loss of mass on a sensor chip optically.

The target of assay [2] is 5pGST, recombinant FbsA fragment 5p (one repeat) fused to GST (Streptococcus agalactiae strain COH1). The assay is described as above.
Assay [3] addresses 6pGST, recombinant FbsA fragment 6p (five repeats) fused to GST (Streptococcus agalactiae strain COH1). As to the kind of experiment: ELISA; 5pGST or 6pGST (500 ng/well) coated overnight at 4°C in 0.1 M carbonate buffer, blocked with 2% BSA, increasing amounts of human Fng; detected with mouse anti-human Fng IgG and peroxidase-conjugated rabbit anti-mouse IgG. (In general: In an ELISA, binding on a coated surface is turned into a signal by an enzyme label.)

Assay [4] concerns the target 5pGST, recombinant FbsA fragment 5p (one repeat) fused to GST (Streptococcus agalactiae strain COH1). The assay is described as above.

One may read the Kd as a measure of binding affinity in units of concentration. Broadly, the EC50 is the midpoint of the concentration-response curve. On to “Human fibrinogen (from UniProt P02671 36-866; P02675 45-491; P02679 27-453) (complex)”, for which the Kd came out at 23 nM in assay [1] and 27.5 nM in assay [2]. The concentration for a half-maximal effect (EC50) in assay [3] was determined as 63 nM; in assay [4], 31.2 nM.
